Data on 19 sequences can be found in a protein production outcome set (Wang et al. 2014).

The nature of this series: label from the status in PepcDB records.
Regarding “MCRYCLIVAARVGAVDDARFDMTAPDLIPIETLFGMPEFSRAQISPDGRLVAYLAPWRGRLNIWVRPVGQGTARRLTGDDTRNIDGFSWTRDTRYLLFIQDTQGDENWHLHRVEVDGAEAVGGKARTVDLTPYSGVRVMGLELSAAFPSKAFVQMNLRTPDLIDLYEVDIESAETRVAALNPGRFVRWIVTPNGPMHAFIINDVGDHELARYENGVFTTLAKLSGRDQPIGPMPLMVAADGESVLVGCNAGSDHTYLAAIDLATGKCRVIDSQPDCSLDTPRPEADPRFPSSLITNPVTGELLAVRYLGKRQQIRPLNLRFAAVLNSLQRLSDGEIGYISCDAGGRQWVAEFWDDRHPGTTWFYEHESGEAHVLGERFSALSAERLVSVRPIDVISRDGLTLPCHVTLPVGFDAKDEPRALPTVLLVHGGPWYRDACVYDPEVQFLANRGYAVLQVNFRGSTGYGKAFMQAAIGEFSGRMHDDLIDGLDWLIGQGIADPARVAIYGCSYGGYAALVGASFTPERFTATISYSGISDLRMLVNGVVPFVQPTLINTYLSYMGDPDIETQNRDMLARSPVSRLDCISKPLLVVHGANDVRVAKAQADMVVERVRANGVEVDYLLNEREGHWFINEDSNIELYRKIERFLARHLRGE”, the protein production result is listed as “failed”.

As to “MSGDILNDIVAACLELERKASSVFKMFAAHAGSDEARRFWETVADETRHHSAVYERLQERGGRENLPIIIYKPAETLEELEMIGKSIDEQVERYTEAPSSEAACLLGFRLQLYLLHPAFASLCRLTRDASGEDLPDIGYGRYLRRFIDGIGSCGLATAETELLGEALFRLWNEARQLAAQSHFDALTGVMTRAGFFKTVGSLAYAAQRSGSNVGIMLIDLDYFKLVGDNYGHQTGDRILQLVAETITSHLRRSDVVGRYDGDEFVVYLSPVEPASLRTVAENLRRSIEEESARMVPVTASIGVAQGILGTDVDGGIEELVRLADECLMQAKYTGKNKVVVK”, the protein production result is reported as “not failed”. The same measure for “MADSIKSSNSFQKLDNIDAKETSTVDRKWVALTAYQPVDVVTKTVEVPIIKTVEKYVPKTIIQEKIIHVPKNVTHIVEKIVEVPEVKYIEKIVEVPHIHYKNKYVPKIEIVEKVVERQKIIEKWHDKIVEVPQIKEVVRFKQIEDSEEIIKYVPRNSKNIDWEDEYKKYTESKGLQRYSLDQNNIYQQANSFNQFNENAYNQNAFNRSYELLNKQSSVKSQNNASGENFSQMNFYNQYSGANFEQERSIQASNFEPSGSMQLKRLSSEEIKPAGCCSAACT”: “failed”; for “MTKKTGFFKRLKALTLPQKQLFATALCQRMLPNYQLFSEVCEFGDPAVLSTALELLWQSLYDPKLKFNIDVHLQRLEDNTPEPADFEAYGVYPAMDAVVAISTLLGAIQGKIEEDIVNISKLSSSTVANYIEAISDVDLVDEALDDFVFAHEVMEEEKELQNSLLEIIEENPKITAELVKGLRKDIIETGVSNIGISVA”: “not failed”; for “MGSSHHHHHHSSGLVPRGSHMFKLTPAAAEQVLKAAKQGGTEGMCLRLAAGRNPDGSIDYRMGFDDLTEDDIRLTSEGVEIVIAPDYVSLLDQTTLDYVELEPGQFHFIFLNPRDPTYRPPSGG”: “not failed”. Next, “MKVINVDVAIIGTGTAGMGAYRAAKKHTDKVVLIEGGAYGTTCARVGCMPSKLLIAAADASYHASQTDLFGIQVDRISVNGKAVMKRIQTERDRFVGFVVESVESFDEQDKIRGFAKFLDEHTLQVDDHSQVIAKRIVIATGSRPNYPEFLAAAGSRLLTNDNLFELNDLPKSVAVFGPGVIGLELGQALSRLGVIVKVFGRSGSVANLQDEEMKRYAEKTFNEEFYFDAKARVISTIEKEDAVEVIYFDKSGQKTTESFQYVLAATGRKANVDKLGLENTSIELDKKNSPLFDELTLQTSVDHIFVAGDANNTLTLLHEAADDGKVAGTNAGAYPVIAQGQRRAPLSVVFTEPQVASVGLSLRQIEDLYADQDAANYVVGQVSFEGQGRSRVMGKNKGLLNVYADRTSGEFLGAEMFGPAAEHIGHLLAWARQQQMTVQAMLTMPFYHPVIEEGLRTALRDAQQKLAIEKHDMNEFIMTHDNAMKLVI”: “not failed”. As for “MEKSKIINYWDKRAESFSKNKLAELESTHAQKWIEEINNINPIQPGMKILDIGTGAGFLAILCGNLGSDVTGIDLSPEMIQSAKQNAESHHQDIHFQVMDAESLQFNDETFDMVISRNVTWLLPNTKAAYQEWLRVLKPNGKLINIDANYGNDSFTDYKSLNTEHAHHTLGKDMLAESEAIKQNIPINHQPRPQTDMDILKSLGFDHIHLDTEIYLRMYSEQDEFYNPTPIFLISVTKSY”, the protein production entry is “failed”. For the sequence “MAMEIGEDEWKVCCGSSEFAKQMSTSGPLTSQEAIYTARDIWFNQVNVTDWLEAFSAHPQIGNTPSPSINSDFARRSVSEQSTAFATTSASALQELAEWNVLYKKKFGFIFIICASGRTHAEMLHALKERYENRPIVELEIAAMEQMKITELRMAKLFSDKAKVISETDSSSSPVSTKPQDRLRIIGGHLNVAAEAKAPKRSRPPITTHVLDVSRGAPAAGVEVHLEVWSGTTGPSFVHGGGGVWSSVGTSATDRDGRSGPLMDLVDALNPGTYRISFDTAKYSPGCFFPYVSIVFQVTESQKWEHFHVPLLLAPFSFSTYRGS”, the protein production result is “failed”. Next, “MEGTLSFVSGFAPAVYRRELFRHRCVTTAPEARAWPRLGLLRANSGARLSRVDITPEIYKRLVSMAKRTEGNFSAVAGAILESYLTAATNRDLRAVIFDMDGVLCDSERLSRAAGVEYFRRYHGVWPTEKDFADFAGTGEAAFLSGVARRYSVKDFDVNKAKEGFFNIYVNEYVSALEPFEGVREFIQQIKTMGLKTALASSADAIKVHANLSAIGFERDMFDFVTRSDEIANKKPAPDIFLAAAEGLGVPPESCVVIEDAPAGVLAAKRARMRCVAVATSVSAQLLWDAGADIVRPAPQYIMLDDIVITDDADASAPASASQE”: “failed”. Next, “MQVTFHPRACRFLKTRKAEKPNNEPLYASTSNRETIGDTGMSNPWIAIGALAVVALAIPLTMMAVSSLLRPSVPEQGKRTTYESGEVPTGSSRQIKFNIQYYMVALLFVVFDIETVFIFPWTVIYSDAAAELGMTTALLPMVVFITILAIGLGWAWRNGAVQWVRSPRATKGADTYE”: “failed”. The same measure for “MTNHEQVLTDYLAAFIEELVQAGVKEAIISPGSRSTPLALMMAEHPTLKIYVDVDERSAGFFALGLAKASKRPVVLLCTSGTAAANYFPAVVEANLSQIPLIVLTADRPHELRNVGAPQAMDQLHLYGSHVKDFTDMALPENSDEMLRYAKWHSSRAVDIAMKTPRGPVHLNFPLREPLVPILEPSPFTATGKKHHHVH”: “failed”; for “MKEVSAAPKITNVKAAILGFQHLLAMYSGDVLVPLLIGAALHFSQEQLTYLVSIDIFMCGIATFLQLKRTPLTGIGLPVVLGCAVQAVNPLIQIGKTYGLGTMYGSIIGAGIFIFLIAGLFSKIKNLFPPVVTGSLITIIGFTLIPVAFQNLGGGDTSAKDFGNLQALGIGFLTIAIILLISVFARGFMKSVSILIGILVGTLIAGAMGMVSLKPVAEASWFHLPTLFYFGTPHFEWSSILTMILVSLTTMVESTGVFFALGDITGRKIEGDDLKRGYRAEGIAVILGGLFSTFPYSTFSENVGVVQLSGVKTRKPIYFSAAFLVVLGLLPKIGALATIIPDPVLGGAMVVMFGIVGIQGIRMLAQVDFRNNNNLLVAAVSIGLGLGVTVQTNIFQFLPGALQIMLSNGVVVGSVAAVGLNLLFNRHAAENTVDDESVGLNETEQP”: “failed”. In the case of “AGVSISAQNLIKNEKFATEVTNKVTNPSKATAGEWFIMNNEADGVTTIAWEQTGDAKYPNAMKIDNSGAEKNTSWYKAFLGQRITDGLEKGIYVLTFYAKAKEAGTPVSVYIKQTNEEKNDNGKLNTTFFMRRDYDADAQPNASGAQYNFKIKDADKWTKVVVYYDMGQVVNAISSKKSNPALEVSDTDDDAAILKDCYVAILGQNKGGVVEISDVTLKKK”, the protein production result is recorded as “not failed”.

As to “MSLGQQQVTLFWSGAITGPTSDAGAPYGAAVEDYCKWANERKLVPGVVFNCVVRDDQYNNANTQRFFEEAVDRFKIPVFLSYATGANLQLKPLIQELRIPTIPASMHIELIDPPNNDYIFLPTTSYSEQVVALLEYIAREKKGAKVALVVHPSPFGRAPVEDARKAARELGLQIVDVQEVGSGNLDNTALLKRFEQAGVEYVVHQNVAGPVANILKDAKRLGLKMRHLGAHYTGGPDLIALAGDAAEGFLWATSFYMAHEDTPGIRLQKEIGRKYGRPENFIESVNYTNGMLAAAIAVEAIRRAQERFKRITNETVYQAIVGMNGPNAFKPGFAVSTKQGVEIDFTKSEHTGAEGLRILEAKGGRFVPVTEPFTSALFRKVHYGEGHHHHHH”, the protein production entry is “not failed”. In the case of “MMDVARAKFLPHEQVTFQVADATTLPFENEAFDAVVCQFGVMFFDKDTAFREAYRTLGRGGRYLFSVWDSRRYNPFASLAFEVLKQFFPLNPPRFLEAPVSSFEIDPIKEALIQSGFERIVISVQGREHDILDVRTFARGLVFSPVIEEIRERGGVEPEDIIAALAEALKREYGSRPTRYPMQAILFEAEKP”, the protein production result is listed as “failed”. Regarding “MGAWRFWWDSTRRFYKNWGSYVALIFSTNLVISYLAIPFFNWVLEMLLKWQRVSYVSYTNIGSIIIHQPLAALGMVAILLAIIILVYWQFAFLLLGIMNIFRGRPQTVRAVLRSTVTSLTGTSPSTFLFFIGYFIVILPFGSFIFTTPLLNKAKIPAFIVSYLMENPWMTLGLGCFYLLAGYLGIRLISLLPLMIVDRLPWKTAVTRSWQQTRHHLWRYLWTMIVTLFMIFLIVTTIYTLIYVAQLQFDKTSFAMAAATVNLFIMEAITEIIICYTTAIFMMLIIVCYRQDFTLLRQQPQYFNEAPRLRKLTRASVAIGLLLATSLLVAVNLVYLNGLVITKPIMISHRGVDNGNGVQNTIPALIKTSKEHPDYVEMDIQVTKDHQFVVMHDPTLKALAGVKKKPSQLTLKQLEKITVRENGYQAKIPSFDAYLKAAHKHHQKLLVEIKTSSAYTAADTKRFIDRYGATLLAHHDQVHTLSFKVMRDLKRLDQKQFVSYILPYNLTFPHTVANGYTMEVTTLNDQFVDKADRNHKTVYAWDIDNTDQMDQMMFMGVTGVVTDNLTEMQQEVKSNTDHPSYAKLLLTFMNELSLTSNE”, the protein production entry is given as “failed”. The same measure for “FGLETVSENELAHSEEELRIILSESYKSGEINQSEFKYVNKIFEFDDRLAKEIMIPRTEIVSLPHDIKISEMMDIIQIEKYTRYPVEEGDKDNIIGVINIKEVLTACISGEVSVDSTISQFVNPIIHVIESAPIQDLLVKMQKERVHMAILSDEYGGTAGLVTVEDIIEEIVGEIR”: “not failed”; for “MNLNNIRSSMTESTKSKDESMRSHLVKPGSVYDGIEPGELGETTESVQDRVRQLESRNSFLEEQCSQIESEKRYLENQKIKYEREIRKLQSELDRMKTSPLIIGTVIDVIKNDRIIVRSSNGPQFLVNVSQYIDEKKLLPGAKVALNQHTLAIAEVIPSTEEPFVAAMEVIESVEVDYDQIGGLDEQIQELQEAVELPLTSPERFARIGIEPPKGVLLYGLPGTGKTLLAKAVAHRTNATFIRVVGSELVQKYIGDGSKLVREIFEMARKKAPSIIFIDELDSIAARRLNETTGADREVQRTLMQLLAEMDGFDKRKNIRIIAATNRPDVLDPAILRPGRFDRLVHVPMPGIEARGKILKIHCEKMTLAEDIDFKKLAKATEGMSGADLKAIATEAGMFAVRRDKELVEMEEFLEAVEKVSMAADTQKMMPSNLPETMFV”: “failed”. The same measure for “MLEACESKLDIIKNFVPSWFAAVMGTGILAVDSLLYSSYLPILKDVAVGLFYFNVLLFFIFLVPWVLRWIMFKDNALADLKHPVLSAFYPTIAVSCLVLGADFINIGHNMFWGGVFWTLGAIGMFLFSLIVPFYMFKSESIKLDHVNPGWYIPPVGLIVIPIAGSLIMPHLTGVWHELTVLINYFGWGAGFFLYLALLAVVIYRFILHHPLPSAMAPTVWINLGPIGAGIVALINMVNNSPFITIKEPFYIFSFIFWGFGLWWSLMAIIMTLYYVKKLKLPYAMSWWAFIFPLGAYVASSHLVYKIFKFSIIDYIGFGLYWLLFFFWAITLIKTTNKVYTGEVFKGH”: “failed”.
